Publication PMC10671532, “Expanded Substrate Specificity in D-Amino Acid Transaminases: A Case Study of Transaminase from Blastococcus saxobsidens” (International Journal of Molecular Sciences, 2023)

Assays:
[1] = target: T1, BlasaTA (transaminase from Blastococcus saxobsidens) (Blastococcus saxobsidens, UniProt H6RQF3); experiment: half-reaction with PLP form, absorbance at […] nm, kobs fit; type: biochemical; details: pH 8.0, 50 mM K-phosphate, 30 °C, single half-reaction, read-out: 50 mM K-Phosphate Buffer, pH 8.0 / KD
T1 construct: gene BLASA_4517; codon-optimized gene in modified pET-21d; N-terminal His6 tag with TEV site kept for kinetics, cut for crystals; E. coli Rosetta (DE3) pLysS; homodimer ~60 kDa

[2] = target: Recombinant D-amino acid transaminase from Blastococcus saxobsidens (BlasaTA), (His)6-tagged (Blastococcus saxobsidens (strain DD2)); experiment: SEC; gel filtration of the purified enzyme; molecular weight approximately 60 kDa against 29.1 kDa for the subunit; conditions not shown
purified protein [3] = substrate: C[C@@H](N)C(=O)O; experiment: purified protein; details: co-substrate 5 mM α-ketoglutarate, pH 8.0, 50 mM K-phosphate, 40 °C
purified protein [4] = substrate: CC(=O)C(=O)O; experiment: purified protein; type: biochemical, Blastococcus saxobsidens; details: co-substrate 15 mM D-glutamate, pH 8.0, 50 mM K-phosphate, 40 °C
purified protein [5] = substrate: CC(C)CC(=O)C(=O)O; experiment: purified protein; type: biochemical, Blastococcus saxobsidens; details: co-substrate 25 mM D-alanine, pH 8.0, 50 mM K-phosphate, 40 °C
purified protein [6] = substrate: C[C@@H](N)c1ccccc1; experiment: purified protein; type: biochemical, Blastococcus saxobsidens; details: co-substrate 2 mM α-ketoglutarate, pH 9.0, 50 mM CHES, 30 °C
purified protein [7] = substrate: N[C@H](CCC(=O)O)C(=O)O; experiment: purified protein; type: biochemical, Blastococcus saxobsidens; details: co-substrate 15 mM pyruvate, pH 8.0, 50 mM K-phosphate, 40 °C
purified protein [8] = substrate: O=C(O)CCC(=O)C(=O)O; experiment: purified protein; type: biochemical, Blastococcus saxobsidens; details: co-substrate 25 mM D-alanine, pH 8.0, 50 mM K-phosphate, 40 °C

For `N[C@H](Cc1ccccc1)C(=O)O` [D-Phenylalanine], the Kd [1] was 32 ± 2 mM.

In the case of `C[C@@H](N)c1ccccc1` [(R)-1-Phenylethyl amine], the Kd [1] is reported as 19 ± 2 mM.

For “Recombinant D-amino acid transaminase from Blastococcus saxobsidens (BlasaTA), (His)6-tagged (enzyme)”, the stoichiometry N [2] was 2.

B1: BlasaTA (transaminase from Blastococcus saxobsidens) (Blastococcus saxobsidens DD2) (protein)
chain: MNEQRSVAVWRDGAAVTVPAHQPVVTAFDLGLGRGDGIFESVAVVAGRTPHLAAHLTRLTRSAALLGLPAPGDQAWMEMVAAVLADWPAALEGVCRLFLTRGLGDGTPPTALALLAPVPADTLRQRAEGISVATLGLGVPADFRAGAPWLLGGAKTLSYAVNMAAQRHAHDLGADDVVFTSLEGRLLEGPTSTVVWAAGGTLHTPPVETGILPGTTQARLFTAAAADGWPTSVTPGTVDDLHAADAVWLLSGVRGAAVVHTVDGVRRGDGDLSRRVRELLAR
notes: codon-optimized gene in modified pET-21d; N-terminal His6 tag with TEV site kept for kinetics, cut for crystals; E. coli Rosetta (DE3) pLysS; homodimer ~60 kDa
Work on B1 yielded a Km (purified protein [3]) of 2000 ± 300 µM, a kcat (purified protein [3]) of 8.1 s⁻¹ and a kcat/Km (purified protein [3]) of 4000 M⁻¹ s⁻¹. For the same molecule, the Km (purified protein [4]) was 1600 ± 100 µM, the kcat (purified protein [4]) was 7.5 ± 0.3 s⁻¹ and the kcat/Km (purified protein [4]) was 4700 ± 500 M⁻¹ s⁻¹. For the same molecule, the Km (purified protein [5]) was 45000 ± 2000 µM, the kcat (purified protein [5]) was 0.19 ± 0.004 s⁻¹ and the kcat/Km (purified protein [5]) was 4.2 ± 0.3 M⁻¹ s⁻¹. For the same molecule, the Km (purified protein [6]) was 6600 ± 400 µM, the kcat (purified protein [6]) was 0.053 ± 0.002 s⁻¹ and the kcat/Km (purified protein [6]) was 8 ± 0.8 M⁻¹ s⁻¹. It also gave a Km (purified protein [7]) of 400 ± 60 µM, a kcat (purified protein [7]) of 7.5 ± 0.3 s⁻¹ and a kcat/Km (purified protein [7]) of 18800 ± 3600 M⁻¹ s⁻¹. The Km (purified protein [8]) was 530 ± 60 µM, the kcat (purified protein [8]) was 8.1 ± 0.3 s⁻¹ and the kcat/Km (purified protein [8]) was 15300 ± 2300 M⁻¹ s⁻¹.
